Source: PMC8999913

Molecular target: VAP-A (VAMP-associated protein A) (UniProt Q9P0L0)
Assay: anti-GFP co-IP after DSP crosslinking, VAP-A blot
Details: reference: WT, sorbitol-treated; sites S315

Substance: CERT (ceramide transport protein) (from UniProt Q9Y5P4) S315A, sorbitol-treated
- binding against the reference: weaker
